{"source": "patent US20240116985A1", "about": "(published 2024)", "key": {"[1]": {"biological_target": "T1, beta-catenin in DLD1 TCF/LEF luciferase reporter cells (UniProt P35222 1-781)", "T1 sequence (looked up)": "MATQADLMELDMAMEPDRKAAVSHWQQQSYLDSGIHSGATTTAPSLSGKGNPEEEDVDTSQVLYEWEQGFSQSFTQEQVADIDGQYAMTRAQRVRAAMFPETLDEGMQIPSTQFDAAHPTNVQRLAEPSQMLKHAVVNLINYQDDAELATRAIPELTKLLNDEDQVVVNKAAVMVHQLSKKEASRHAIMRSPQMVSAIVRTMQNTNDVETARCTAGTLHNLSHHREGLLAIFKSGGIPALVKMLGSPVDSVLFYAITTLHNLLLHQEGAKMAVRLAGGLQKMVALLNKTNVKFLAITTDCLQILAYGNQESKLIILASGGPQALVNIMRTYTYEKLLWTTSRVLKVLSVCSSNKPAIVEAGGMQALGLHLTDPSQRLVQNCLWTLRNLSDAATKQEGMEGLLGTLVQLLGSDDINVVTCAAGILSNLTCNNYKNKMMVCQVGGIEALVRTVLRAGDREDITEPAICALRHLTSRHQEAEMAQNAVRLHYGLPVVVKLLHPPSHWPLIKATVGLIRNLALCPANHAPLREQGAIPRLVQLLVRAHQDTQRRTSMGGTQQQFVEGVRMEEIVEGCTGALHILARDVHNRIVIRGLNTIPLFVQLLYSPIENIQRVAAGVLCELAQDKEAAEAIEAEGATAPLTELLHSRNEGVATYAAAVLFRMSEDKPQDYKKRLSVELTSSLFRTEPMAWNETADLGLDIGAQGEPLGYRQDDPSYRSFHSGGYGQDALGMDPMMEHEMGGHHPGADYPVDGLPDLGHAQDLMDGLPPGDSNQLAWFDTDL", "test": "cell-based or functional assay"}, "[2]": {"biological_target": "T2, B-cat-Halo (NanoBRET construct expressed in HEK293 cells) (UniProt P35222 1-781)", "T2 sequence (looked up)": "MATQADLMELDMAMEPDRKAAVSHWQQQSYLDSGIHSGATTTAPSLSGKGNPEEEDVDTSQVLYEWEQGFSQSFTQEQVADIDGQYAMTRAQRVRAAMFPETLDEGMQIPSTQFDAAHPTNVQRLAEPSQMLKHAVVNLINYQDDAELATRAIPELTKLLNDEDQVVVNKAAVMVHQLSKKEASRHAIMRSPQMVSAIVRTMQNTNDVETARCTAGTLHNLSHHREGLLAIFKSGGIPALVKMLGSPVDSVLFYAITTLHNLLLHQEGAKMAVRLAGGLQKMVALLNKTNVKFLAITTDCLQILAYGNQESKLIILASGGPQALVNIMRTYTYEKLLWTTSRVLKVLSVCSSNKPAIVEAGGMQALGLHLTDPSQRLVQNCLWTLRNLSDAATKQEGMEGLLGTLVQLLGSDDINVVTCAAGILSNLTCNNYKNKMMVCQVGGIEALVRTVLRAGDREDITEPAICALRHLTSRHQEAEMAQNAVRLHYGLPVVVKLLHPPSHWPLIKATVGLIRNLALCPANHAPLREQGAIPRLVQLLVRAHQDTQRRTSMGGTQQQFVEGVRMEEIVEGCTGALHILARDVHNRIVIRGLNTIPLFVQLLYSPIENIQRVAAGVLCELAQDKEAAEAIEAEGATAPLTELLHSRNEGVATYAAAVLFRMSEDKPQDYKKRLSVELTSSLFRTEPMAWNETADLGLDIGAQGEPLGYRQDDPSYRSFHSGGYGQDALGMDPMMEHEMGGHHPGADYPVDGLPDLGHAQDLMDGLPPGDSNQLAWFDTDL", "test": "cell-based or functional assay"}, "[3]": {"biological_target": "T3, full-length beta-Catenin (Uniprot ID P35222) (Homo sapiens (Human), UniProt P35222 1-781)", "T3 construct": "also called bCat; B-Catenin", "T3 sequence": "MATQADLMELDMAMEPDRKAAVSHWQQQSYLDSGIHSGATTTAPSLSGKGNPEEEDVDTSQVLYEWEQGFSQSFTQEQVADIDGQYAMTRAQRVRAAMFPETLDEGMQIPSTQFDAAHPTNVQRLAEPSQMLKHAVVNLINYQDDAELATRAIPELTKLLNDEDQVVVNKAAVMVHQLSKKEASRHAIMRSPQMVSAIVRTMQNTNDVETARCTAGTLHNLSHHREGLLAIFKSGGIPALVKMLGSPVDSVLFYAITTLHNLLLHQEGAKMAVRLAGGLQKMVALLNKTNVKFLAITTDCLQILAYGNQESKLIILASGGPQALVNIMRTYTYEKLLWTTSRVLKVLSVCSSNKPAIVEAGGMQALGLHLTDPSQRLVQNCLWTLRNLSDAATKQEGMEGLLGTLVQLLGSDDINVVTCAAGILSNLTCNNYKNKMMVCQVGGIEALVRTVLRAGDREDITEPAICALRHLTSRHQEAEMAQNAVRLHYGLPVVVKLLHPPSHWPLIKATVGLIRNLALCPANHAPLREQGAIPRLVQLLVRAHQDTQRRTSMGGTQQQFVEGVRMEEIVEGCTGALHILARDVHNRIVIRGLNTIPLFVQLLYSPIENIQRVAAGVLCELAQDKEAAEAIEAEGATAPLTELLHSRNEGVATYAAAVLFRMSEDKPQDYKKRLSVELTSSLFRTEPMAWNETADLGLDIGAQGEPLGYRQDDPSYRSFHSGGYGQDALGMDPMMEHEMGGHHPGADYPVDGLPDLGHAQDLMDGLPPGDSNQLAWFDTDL", "test": "FP competition: full-length beta-catenin 10 nM + 5FAM-TCF4(10-53) 10 nM", "experimental": "The plate was incubated protected from light for 60 minutes at 20° C. prior to read. Reads were performed on a CLARIOstar plate reader (BMG Labtech) in duplicate, and data were fitted to a 1:1 binding model with hill slope using an in-house script. All provided concentrations are final concentrations."}, "[4]": {"biological_target": "T4, beta-catenin in DLD1 TCF/LEF luciferase reporter cells (UniProt P35222 1-781)", "T4 sequence (looked up)": "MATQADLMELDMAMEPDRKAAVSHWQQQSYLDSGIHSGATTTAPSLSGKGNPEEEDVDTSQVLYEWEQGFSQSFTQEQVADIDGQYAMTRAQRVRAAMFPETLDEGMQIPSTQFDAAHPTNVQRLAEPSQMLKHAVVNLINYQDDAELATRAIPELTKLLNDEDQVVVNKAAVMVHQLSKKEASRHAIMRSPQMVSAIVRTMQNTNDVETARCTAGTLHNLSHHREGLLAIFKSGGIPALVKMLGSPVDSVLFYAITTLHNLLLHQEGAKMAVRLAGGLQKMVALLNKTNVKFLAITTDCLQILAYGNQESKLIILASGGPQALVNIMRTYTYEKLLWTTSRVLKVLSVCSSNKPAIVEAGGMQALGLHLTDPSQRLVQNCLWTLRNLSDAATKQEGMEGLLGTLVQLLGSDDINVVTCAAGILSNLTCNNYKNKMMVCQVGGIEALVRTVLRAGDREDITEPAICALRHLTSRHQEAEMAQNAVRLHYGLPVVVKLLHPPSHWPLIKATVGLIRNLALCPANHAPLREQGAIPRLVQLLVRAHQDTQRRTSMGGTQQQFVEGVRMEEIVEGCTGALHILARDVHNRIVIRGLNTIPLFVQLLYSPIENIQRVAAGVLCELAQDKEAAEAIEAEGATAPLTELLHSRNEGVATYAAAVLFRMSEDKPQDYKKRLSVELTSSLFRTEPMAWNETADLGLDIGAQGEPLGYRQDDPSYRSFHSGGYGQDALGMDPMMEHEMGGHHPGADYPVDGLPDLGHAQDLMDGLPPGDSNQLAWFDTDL", "test": "cell-based or functional assay", "remark": "listed apart in the source"}, "[5]": {"biological_target": "T5, B-cat-Halo (beta-catenin HaloTag NanoBRET construct expressed in HEK293 cells) (UniProt P35222 1-781)", "T5 sequence (looked up)": "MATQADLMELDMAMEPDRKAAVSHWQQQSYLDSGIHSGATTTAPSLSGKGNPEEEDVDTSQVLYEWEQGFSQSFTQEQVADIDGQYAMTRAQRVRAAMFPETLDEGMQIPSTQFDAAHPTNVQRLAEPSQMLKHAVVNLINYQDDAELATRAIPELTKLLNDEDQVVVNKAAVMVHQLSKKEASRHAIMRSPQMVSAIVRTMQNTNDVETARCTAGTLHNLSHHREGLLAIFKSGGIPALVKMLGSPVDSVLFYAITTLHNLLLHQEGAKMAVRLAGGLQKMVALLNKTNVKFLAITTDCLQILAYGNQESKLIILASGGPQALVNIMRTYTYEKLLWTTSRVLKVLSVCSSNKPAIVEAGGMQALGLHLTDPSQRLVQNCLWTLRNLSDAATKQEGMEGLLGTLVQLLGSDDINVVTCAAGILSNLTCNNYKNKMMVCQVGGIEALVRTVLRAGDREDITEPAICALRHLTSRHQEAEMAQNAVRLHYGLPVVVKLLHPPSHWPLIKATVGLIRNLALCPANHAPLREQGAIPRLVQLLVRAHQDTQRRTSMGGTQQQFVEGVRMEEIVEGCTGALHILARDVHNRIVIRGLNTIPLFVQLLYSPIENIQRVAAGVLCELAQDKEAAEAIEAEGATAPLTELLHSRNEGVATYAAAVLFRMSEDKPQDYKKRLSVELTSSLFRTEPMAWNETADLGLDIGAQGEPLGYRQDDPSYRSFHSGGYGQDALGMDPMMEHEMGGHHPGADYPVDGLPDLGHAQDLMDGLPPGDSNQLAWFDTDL", "test": "cell-based or functional assay"}, "[6]": {"biological_target": "T6, B-cat-Halo (beta-catenin HaloTag NanoBRET construct expressed in HEK293 cells) (UniProt P35222 1-781)", "T6 sequence (looked up)": "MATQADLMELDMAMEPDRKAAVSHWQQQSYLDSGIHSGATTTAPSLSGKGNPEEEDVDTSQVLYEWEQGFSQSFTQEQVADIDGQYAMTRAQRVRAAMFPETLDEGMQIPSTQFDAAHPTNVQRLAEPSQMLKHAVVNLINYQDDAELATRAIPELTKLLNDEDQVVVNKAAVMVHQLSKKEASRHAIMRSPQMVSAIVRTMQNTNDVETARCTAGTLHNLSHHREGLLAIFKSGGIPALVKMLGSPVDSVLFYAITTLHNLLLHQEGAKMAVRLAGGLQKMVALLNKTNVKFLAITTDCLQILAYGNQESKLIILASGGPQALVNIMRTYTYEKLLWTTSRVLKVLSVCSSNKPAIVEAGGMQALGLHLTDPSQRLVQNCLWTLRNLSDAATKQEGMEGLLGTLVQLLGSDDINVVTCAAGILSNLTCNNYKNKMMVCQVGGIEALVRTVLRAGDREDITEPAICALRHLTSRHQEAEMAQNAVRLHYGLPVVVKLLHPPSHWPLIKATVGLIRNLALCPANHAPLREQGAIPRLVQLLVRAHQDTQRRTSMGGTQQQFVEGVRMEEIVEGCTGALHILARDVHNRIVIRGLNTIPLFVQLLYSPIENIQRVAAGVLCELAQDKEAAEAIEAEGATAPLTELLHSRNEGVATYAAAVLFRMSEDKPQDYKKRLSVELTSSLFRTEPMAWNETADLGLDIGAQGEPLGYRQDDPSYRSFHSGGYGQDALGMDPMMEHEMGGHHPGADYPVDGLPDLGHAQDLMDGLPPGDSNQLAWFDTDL", "test": "cell-based or functional assay", "remark": "listed apart in the source"}}, "note": "Starred links: 1 amine or outer side, 2 acyl side, 3 side chain; linkers in the order of their positions; H or OH if unused. Positions of bridges follow the written chain, without caps; N, C: chain ends. Non-standard residues stand in square brackets, D forms with d. Primed or numbered codes have the meaning given here. PyrS2″ = (S)-3-amino-1-((pent-4-en-1-yloxy)carbonyl)pyrrolidine-3-carboxylic acid (stapling residue), C=CCCCOC(=O)N1CC[C@@](N[*:1])(C(=O)[*:2])C1; B5(16) = 2-amino-2-(pent-4-en-1-yl)hept-6-enoic acid = 2,2-bis(4-pentenyl)glycine (stitching residue), C=CCCCC(CCCC=C)(N[*:1])C(=O)[*:2]; B5(5) = 2,2-bis(4-pentenyl)glycine, 2-amino-2-(pent-4-en-1-yl)hept-6-enoic acid (stitching residue), C=CCCCC(CCCC=C)(N[*:1])C(=O)[*:2]; B5(21) = 2-amino-2-(pent-4-en-1-yl)hept-6-enoic acid, bis(4-pentenyl)glycine (stitching residue), C=CCCCC(CCCC=C)(N[*:1])C(=O)[*:2]; B5(6) = 2-amino-2-(pent-4-en-1-yl)hept-6-enoic acid (bis(4-pentenyl)glycine), stitching residue, C=CCCCC(CCCC=C)(N[*:1])C(=O)[*:2]; TfeGA = (S)-2-amino-3-((carboxymethyl)(2,2,2-trifluoroethyl)amino)propanoic acid, O=C([C@H](CN(CC(=O)[*:3])CC(F)(F)F)N[*:1])[*:2]; 2COOHF″ = O=C([C@H](Cc1ccccc1C(=O)[*:3])N[*:1])[*:2]; Bta = N[C@@H](Cc1csc2ccccc12)C(=O)O; αAllylPro = C=CC[C@@]1(C(=O)O)CCCN1; tBuAla = CC(C)(C)C[C@H](N)C(=O)O; 3Thi = N[C@@H](Cc1ccsc1)C(=O)O; S8 = C=CCCCCCC[C@](C)(N)C(=O)O; PyrS2(4) = not defined here"}
{"binder": "Ac-[αAllylPro]DL[B5(6)]DEAAFQ[S8]F[Bta]Q-NH2 (staple 1-4, 4-11, Stapled peptide composition)", "note": "[I-505]", "values": [{"measurement": "DLD1 4% Abs IC50", "setting": "[1]", "value": 9.4, "unit": "µM"}, {"measurement": "NanoBRET Abs IC50", "setting": "[2]", "value": 4.9, "unit": "µM"}, {"measurement": "IC50", "setting": "[3]", "value": 0.023, "unit": "µM"}]}
{"binder": "Ac-[αAllylPro]D[tBuAla][B5(16)]D[2COOHF″]AAFL[PyrS2(4)][3Thi][Bta]S-NH2 (staple 1-4, 4-11; not fully specified; reading uncertain)", "note": "[I-1667]", "values": [{"measurement": "DLD1 4% Abs IC50", "setting": "[4]", "value": 1.3, "unit": "µM"}]}
{"binder": "Ac-[αAllylPro]D[tBuAla][B5(5)]D[TfeGA]AAFN[S8]F[Bta]Q-NH2 (staple 1-4, 4-11)", "note": "[I-703]", "values": [{"measurement": "NanoBRET Abs IC50", "setting": "[5]", "value": 11.9, "unit": "µM"}]}
{"binder": "Ac-[αAllylPro]DA[B5(21)]DEAAFN[PyrS2″]F[Bta]Q-NH2 (staple 1-4, 4-11)", "note": "[I-462]", "values": [{"measurement": "NanoBRET Abs IC50", "setting": "[6]", "value": "> 20", "unit": "µM"}]}
